Source: US8969060B2, “Modified glucose dehydrogenase” (Ikeda Food Research Co., Ltd., priority 2011, dated 2015)
Changes are numbered by the printed parent chain. In names and notes the source's numbering stands. Several values for one entry are separate records, joined by “and”; a condition that tells them apart may be missing. Equal entries are not always repeated.

B1: Wild-type: wild-type FAD-conjugated glucose dehydrogenase (GLD) of Aspergillus terreus FERM BP-08578, SEQ ID NO: 1 (protein, listed as Aspergillus terreus)
chain: MLGKLSFLSALSLAVAAPLSNSTSAKYDYIVIGGGTSGLAVANRLSEDPNVNVLILEAGGSVWNNPNVTNVDGYGLAFGSDIDWQYQSVNQPYGGNLSQVLRAGKALGGTSTINGMAYTRAEDVQIDAWETIGNTGWTWKNLFPYYRKSENFTVPTKSQTSLGASYEAGAHGHEGPLDVAFTQIESNNLTTYLNRTFQGMGLPWTEDVNGGKMRGFNLYPSTVNLEEYVREDAARAYYWPYKSRPNLHVLLNTFANRIVWDGEAHDGHITASGVEITSRNGTVRVINAEKEVIVSAGALKSPAILELSGIGNPSVLDKHNIPVKVNLPTVGENLQDQVNSHMDASGNTSISGTKAVSYPDVYDVFGDEAESVAKQIRANLKQYAADTAKANGNIMKAADLERLFEVQYDLIFKGRVPIAEVLNYPGSATSVFAEFWALLPFARGSVHIGSSNPAEFPVINPNYFMLDWDAKSYVAVAKYIRRSFESYPLSSIVKESTPGYDVIPRNASEQSWKEWVFDKNYRSNFHPVGTAAMMPREIGGVVDERLNVYGTTNVRVVDASVLPFQVCGHLVSTLYAVAERAADLIKADAGRR
modifications: FAD cofactor; SIGNAL (1)..(19)
B2: G426V: modified GLD: SEQ ID NO: 1 with substitution G426V (protein, listed as Aspergillus terreus)
chain: B1 chain with G426V
modifications: SIGNAL (1)..(19)
B3: G426Y: modified GLD: SEQ ID NO: 1 with substitution G426Y (protein, listed as Aspergillus terreus)
chain: B1 chain with G426Y
modifications: SIGNAL (1)..(19)
B4: G426T: modified GLD: SEQ ID NO: 1 with substitution G426T (protein, listed as Aspergillus terreus)
chain: B1 chain with G426T
modifications: SIGNAL (1)..(19)
B5: G426D: modified GLD: SEQ ID NO: 1 with substitution G426D (protein, listed as Aspergillus terreus)
chain: B1 chain with G426D
modifications: SIGNAL (1)..(19)
B6: G426S: modified GLD: SEQ ID NO: 1 with substitution G426S (protein, listed as Aspergillus terreus)
chain: B1 chain with G426S
modifications: SIGNAL (1)..(19)
B7: F432K: modified GLD: SEQ ID NO: 1 with substitution F432K (protein, listed as Aspergillus terreus)
chain: B1 chain with F432K
modifications: SIGNAL (1)..(19)
B8: G426W: modified GLD: SEQ ID NO: 1 with substitution G426W (protein, listed as Aspergillus terreus)
chain: B1 chain with G426W
modifications: SIGNAL (1)..(19)
B9: V431F: modified GLD: SEQ ID NO: 1 with substitution V431F (protein, listed as Aspergillus terreus)
chain: B1 chain with V431F
modifications: SIGNAL (1)..(19)
B10: G426A: modified GLD: SEQ ID NO: 1 with substitution G426A (protein, listed as Aspergillus terreus)
chain: B1 chain with G426A
modifications: SIGNAL (1)..(19)
B11: F432M: modified GLD: SEQ ID NO: 1 with substitution F432M (protein, listed as Aspergillus terreus)
chain: B1 chain with F432M
modifications: SIGNAL (1)..(19)
B12: F432I: modified GLD: SEQ ID NO: 1 with substitution F432I (protein, listed as Aspergillus terreus)
chain: B1 chain with F432I
modifications: SIGNAL (1)..(19)
B13: F432T: modified GLD: SEQ ID NO: 1 with substitution F432T (protein, listed as Aspergillus terreus)
chain: B1 chain with F432T
modifications: SIGNAL (1)..(19)
B14: F432Q: modified GLD: SEQ ID NO: 1 with substitution F432Q (protein, listed as Aspergillus terreus)
chain: B1 chain with F432Q
modifications: SIGNAL (1)..(19)
B15: G426C: modified GLD: SEQ ID NO: 1 with substitution G426C (protein, listed as Aspergillus terreus)
chain: B1 chain with G426C
modifications: SIGNAL (1)..(19)
B16: F432V: modified GLD: SEQ ID NO: 1 with substitution F432V (protein, listed as Aspergillus terreus)
chain: B1 chain with F432V
modifications: SIGNAL (1)..(19)
B17: F432R: modified GLD: SEQ ID NO: 1 with substitution F432R (protein, listed as Aspergillus terreus)
chain: B1 chain with F432R
modifications: SIGNAL (1)..(19)

Test: Relative enzymatic activity of GLD (DCIP/1-m-PMS, plate reader, yeast culture supernatant) with 1,10-phenanthroline present
Type: biochemical
Conditions: random-mutation mutants, sample value with inhibitor at 1 mM / blank value, inhibitor not named in Table 1
Method in brief: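 Inhibitor at 1 mM final substitutes for the methanol in the reagent, and the sample rate is expressed as % of the inhibitor-free blank. Rates come from ΔA600/min of DCIP with glucose and 1-m-PMS at pH 7.0, using supernatants of YPD-grown yeast clones (24 h, 30° C.).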

For B1, the “Relative Activity” value was 25.7%.

Same assay, conditions: site-specific mutants, inhibitor final concentration 1 mM

In order of rising “Relative Activity [%] 1,10-Phenanthroline” value:
1. B1  30.0%
2. B5  56.5%
3. B14  59.3%
4. B8  61.0%
5. B3  61.6%
6. B10  68.7%
7. B15  78.0%
8. B16  80.2%
9. B6  80.9%
10. B9  82.1%
11. B4  88.5%
12. B13  89.9%
13. B2  90.3%
14. B12  91.8%
15. B7  92.1%

For B11, the “Relative Activity [%] 1,10-Phenanthroline” value was 62.5% and 74.2%.
For B17, the “Relative Activity [%] 1,10-Phenanthroline” value was 86.2% and 94.2%.

Test: Relative enzymatic activity of GLD (DCIP/1-m-PMS, plate reader, yeast culture supernatant) with proflavin hydrochloride present
Type: biochemical
Conditions: site-specific mutants, inhibitor final concentration 1 mM
Method in brief: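 Culture supernatant diluted and mixed with reagent of phosphate buffer pH 7.0, 1.0 M D-glucose, 3 mM DCIP, 3 mM 1-m-PMS and methanol (0.1:1:0.14:0.2:0.06). DCIP absorbance decrease at 600 nm followed; proflavin hydrochloride in methanol replaced methanol at 1 mM final. Activity expressed as % of inhibitor-free blank.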

In order of rising “Relative Activity [%] Proflavin hydrochloride” value:
1. B5  34.2%
2. B1  35.0%
3. B3  47.5%
4. B8  47.8%
5. B10  51.2%
6. B9  57.7%
7. B6  58.0%
8. B4  58.4%
9. B2  59.9%
10. B15  64.1%
11. B14  67.3%
12. B16  70.3%
13. B7  79.3%
14. B13  80.2%
15. B12  80.9%

With B11 the “Relative Activity [%] Proflavin hydrochloride” value was 71.1% and 66.1%.
For B17, the “Relative Activity [%] Proflavin hydrochloride” value was 73.7% and 72.6%.

Test: Susceptibility of purified enzyme to 1,10-phenanthroline (spectrophotometer)
Type: biochemical
Conditions: inhibitor 1 mM
Method: (§1) 1.0 mL of 0.1 M potassium phosphate buffer (pH 7.0), 1.0 mL of 1.0 M D-glucose, 0.14 mL of 3 mM 2,6-dichlorophenol indophenol (hereinafter referred to as DCIP), 0.2 mL of 3 mM 1-methoxy-5-methylphenazinium methylsulfate (hereinafter referred to as 1-m-PMS), 0.06 mL of methanol and 0.55 mL of distilled water are added to a 3-mL quartz cell (light path length: 1 cm), and the cell is placed in a spectrophotometer provided with a thermostat cell holder and incubated at 37° C. for 10 minutes. Thereafter, 0.05 mL of an enzyme solution is added to the cell, and then, a change in the absorbance of DCIP at 600 nm (ΔABS/min) is determined. The molar extinction coefficient of DCIP at pH 7.0 is taken as 16.3×10^3 cm^−1 M^−1, and enzymatic activity to reduce 1 μmol of DCIP per minute is substantially equivalent to 1 unit of the enzymatic activity. Therefore, the enzymatic activity is determined from the change in the absorbance according to Equation I. In Example 8, methanol was replaced with the same amount of distilled water.
(§2) In the following examples, a value of the enzymatic activity determined by the spectrometer or plate reader using the above reagent composition is considered as a blank value. On the other hand, a sample value is determined using a methanol solution comprising the inhibitor such as 1,10-phenanthroline or proflavin hydrochloride at a final concentration of 1 mM instead of the methanol. Enzymatic activity (unit/mL)=(−ΔABS/16.3)×3.0/0.05×(Dilution ratio of enzyme) [Equation 1]
(§3) The mutants having the mutation of H341W and F432L, respectively, were inoculated into a shake flask containing 150 mL the YPD medium. After shaking culture at 30° C. and 120 rpm for 48 hours, the culture mixture was centrifuged at 3,000×g for 5 min. and the supernatant was filtered through a membrane filter with 10 μm. […]
(§4) After diluting the purified enzyme to an appropriate concentration, the sample value and blank value were determined in accordance with the method for determination of the enzymatic activity using the spectrophotometer.

For B1, the “Relative Activity [%] 1,10-Phenanthroline” value was 41.1%.

Test: Susceptibility of purified enzyme to proflavin hydrochloride (spectrophotometer)
Type: biochemical
Conditions: inhibitor 1 mM
Method: as §1, §2, §3, §4

In the case of B1, the “Relative Activity [%] Proflavin hydrochloride” value is reported as 50.9%.
